The text below walks through data of publication PMC5535893.

The target in assay [1] is mouse CD3εγ-chains (mouse (endogenous in C57BL/6 spleen T cells)) (UniProt P22646).
Assay [2] shares this target. Put plainly: flow cytometry on cells; fixed CD8+ T cells (1 x 10^6/mL) incubated with or without ArtinM (25 µg/mL) for 40 min at 4 °C, then with 145-2C11-PE or 17A2-FITC (10 µg/mL) for 40 min at 4 °C; percentage of cells labelled with anti-CD3 antibody.

Chain of UniProt P22646 (P22646 22-189, chain 1 of 2): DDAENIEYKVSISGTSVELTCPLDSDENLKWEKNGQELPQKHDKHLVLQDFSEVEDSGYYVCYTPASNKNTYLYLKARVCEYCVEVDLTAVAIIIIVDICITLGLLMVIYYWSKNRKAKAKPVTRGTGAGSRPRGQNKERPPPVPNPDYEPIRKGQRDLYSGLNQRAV
Chain of UniProt P22646 (P11942 23-182, chain 2 of 2, further chain): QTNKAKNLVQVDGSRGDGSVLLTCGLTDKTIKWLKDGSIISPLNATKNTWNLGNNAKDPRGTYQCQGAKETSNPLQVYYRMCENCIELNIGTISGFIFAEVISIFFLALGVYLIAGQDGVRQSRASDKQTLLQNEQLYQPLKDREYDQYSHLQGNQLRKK

Take “ArtinM, D-mannose-binding lectin from Artocarpus heterophyllus (natural protein)”: in assay [1], the inhibition of the ArtinM-induced (1.25 µg/mL, 48 h) IL-2 release by CD8+ T cells after treatment with the anti-CD3εγ-chains antibody 17A2 (8 µg/mL), against an IgG isotype control; ELISA was 70%. The substance further displayed a fold decrease in the frequency of CD8+ T cells labelled by the anti-CD3εγ antibody 17A2 after pre-incubation with ArtinM in assay [2] of 3.5 fold.
